B1: fluoresceinated MERS2 peptide F-SVSKQAVCLMERHLRRVPGARRNELKVALSKELKER [modified: fluorescein (F-) printed at the N-terminus; fluorescein (F-) printed at the N-terminus] [T. brucei] / T. brucei MERS1(37–395), his-tagged [Trypanosoma brucei … (parent complex)
chain 1: SVSKQAVCLMERHLRRVPGARRNELKVALSKELKER
chain 2: LVPRGSMDDALRGELASALDTEGHALPFDVHLQQPHSSGDGTAGDTSTIQLEKLSHPPARFDLLTNSFVYKWQTKAALARKVSGPMREWAAELKYRTGVHIELEPTYPERLSENAVKGSGSDDGDGTQWGAYETADDVDITVYLFGSERGIFNCHKLMEAAIQQDPVYVRLGIFRRLANSSEVEWLMLRRINRELRPPDIPPISLKLPGKWTLLYERYKEAAIRTLWEETGITVDASNVYPTGHLYQTVPQYYWRVPVRYFVAEVPSDIRVEGPQVVPLQYMRNWDARLLRQSPDPIDRAWAQLADPATGCAWMKASMIDQLQKPLRGDNYMAIRYTPPPYSNLQEVVGLGDGSITPSTGNGEDAS

Variants of: B1
Assay: fluorescence polarization; value read at the highest MERS1 concentration point, about 13.3 µM (estimated from the x axis); parent: 53; read off a plot

| Variant | response |
| --- | --- |
| chain 1 SVSKQAVCLMERHLRRVPGARRNELKVAPSKPLKER | ~21 mP |
